The results in this text go back to publication PMC3823801, “Structure Reveals Regulatory Mechanisms of a MaoC-Like Hydratase from Phytophthora capsici Involved in Biosynthesis of Polyhydroxyalkanoates (PHAs)” (PLoS ONE, 2013).

As a reminder, the stoichiometry N is a count of units in the complex or per binding partner.

The data set concerns the molecule itself. Kind of data set: SEC; analytical gel filtration, Superdex 75 10/300 GL, 10 mM Tris-HCl pH 8.5, 100 mM NaCl, 1 mM DTT; calibrated with BSA (66 kDa) and rabbit IgG (150 kDa). A general note: Size exclusion chromatography separates by hydrodynamic size, large species first.

B1: MaoC Del63-88 (enzyme)
chain: MSVNVDKILNSPEATYTATYNQRDLLMYAVGIGESDLQFTYEFDEKFSAFPLYPVCLPFKGQILHGEQSVEILRPLDPSGGTLTGKTKVISFYDKGKGTLMETQTQFEDGNGPVAKLISGSFIRGLTGYEGKGRKLPARVQIPKRQPDFNDEFKTSPHQAQVYRLSGDYNSLHIDPEIAKSVGFKQPILHGLCSMGVASRALFKQFCGGDVARFKSIRVRFSSPCFPGETIQTRMWQEGSGKVLFQAVVKERGAVIVDGGEFVYTQDASARL
notes: MaoC-like hydratase, Phytophthora capsici strain SD33, full length with residues 63-88 deleted; Made from the wild-type plasmid (pET28-MaoC) with the MutanBEST kit; source: E. coli BL21 (DE3) pLysS, purified as described for the wild-type protein
For B1, the binding result was “binds”.

B2: MaoC-like hydratase from Phytophthora capsici (enzyme)
chain: MSVNVDKILNSPEATYTATYNQRDLLMYAVGIGESDLQFTYEFDEKFSAFPLYPVCLPFKGQSQDVVPFPPETISAAPDGMPSFNPAMILHGEQSVEILRPLDPSGGTLTGKTKVISFYDKGKGTLMETQTQFEDGNGPVAKLISGSFIRGLTGYEGKGRKLPARVQIPKRQPDFNDEFKTSPHQAQVYRLSGDYNSLHIDPEIAKSVGFKQPILHGLCSMGVASRALFKQFCGGDVARFKSIRVRFSSPCFPGETIQTRMWQEGSGKVLFQAVVKERGAVIVDGGEFVYTQDASARL
notes: MaoC-like hydratase, Phytophthora capsici strain SD33, full length (Met-1 to Leu-298); Cloned BamHI/EcoRI into pET28a; no step that removes the tag is described, and the purified enzymes were detected with anti-His antibody on western blots; also called wild type MaoC; native MaoC; source: E. coli BL21 (DE3) pLysS, purified (Ni-NTA, Superdex-75 gel filtration)
B2: the “stoichiometry N” value came out at 2.

B3: MaoC Del63-71 (enzyme)
chain: MSVNVDKILNSPEATYTATYNQRDLLMYAVGIGESDLQFTYEFDEKFSAFPLYPVCLPFKGQETISAAPDGMPSFNPAMILHGEQSVEILRPLDPSGGTLTGKTKVISFYDKGKGTLMETQTQFEDGNGPVAKLISGSFIRGLTGYEGKGRKLPARVQIPKRQPDFNDEFKTSPHQAQVYRLSGDYNSLHIDPEIAKSVGFKQPILHGLCSMGVASRALFKQFCGGDVARFKSIRVRFSSPCFPGETIQTRMWQEGSGKVLFQAVVKERGAVIVDGGEFVYTQDASARL
notes: MaoC-like hydratase, Phytophthora capsici strain SD33, full length with residues 63-71 deleted; Made from the wild-type plasmid (pET28-MaoC) with the MutanBEST kit; source: E. coli BL21 (DE3) pLysS, purified as described for the wild-type protein
As to B3, the binding result is reported as “binds”.
